# Results published in US20100105151A1.
# Where two headings read alike, the source gives them in different places.
# B1: fluorescently labeled version of the peptide corresponding to residues 396-429 (stem region) of deng (peptide)
# peptide: SSIGQMFETTMRGAKRMAILGDTAWDFGSLGGVF
# modifications: not checked
# B2: stem peptide including residues 413-447 of dengue envelope protein E (peptide)
# peptide: AILGDTAWDFGSLGGVFTSIGKALHQVFGAIYGAA
# modifications: not checked
# Columns and labels:
# [1] = biological target: T1, trimeric, post-fusion form of sE, the soluble fragment of dengue virus type 2 (S1 strain) envelope glycoprotein E (dengue virus type 2 S1 strain), P12823; assay: fluorescence depolarization, labeled peptide titrated with trimeric sE
# [2] = biological target: T1, trimeric, post-fusion form of sE, the …; assay: fluorescence depolarization; 33nM labelled peptide titrated with dengue sE trimer (x axis µM E)
# [3] = biological target: T1, trimeric, post-fusion form of sE, the …; assay: fluorescence depolarization
# [4] = biological target: T1, trimeric, post-fusion form of sE, the …
Binder,Kd [1] [µM],EC50 (read off the curve) [2] [µM],Kd [3] [µM],EC50 (read off the curve) [4] [µM]
B1,6,5,,
B2,,,4,3
